Where no end group is shown, it is not given here. Me3 = trimethyl (trimethylated lysine, Kme3)

This is an account of results in PMC9814790.

Holding throughout (assay): ITC; H3K4me3 peptide (380 uM) titrated to KDM5A PHD3 fingers (28 uM); for AUX WT-KDM5A 190 uM peptide and 21 uM protein; 20 mM TRIS-HCl pH 7.5, 50 mM NaCl, 1 mM DTT; 19 injections; one set of sites model; 7-9 repeats (AUX WT in replicate)
The target in experiment [1] is KDM5A PHD3 finger with 5,6-difluorotryptophan at Trp18 and Trp28 (Homo sapiens) (UniProt P29375).
Experiment [2] deals with KDM5A PHD3 finger with 5-fluorotryptophan at Trp18 and Trp28 (Homo sapiens) (UniProt P29375).
In experiment [3] the target is wild-type KDM5A PHD3 finger expressed in the auxotrophic E. coli Castellani and Chalmers strain (Homo sapiens) (UniProt P29375).
Experiment [4] concerns the target wild-type KDM5A PHD3 finger expressed in E. coli Rosetta BL21 (DE3)pLysS (Homo sapiens) (UniProt P29375).
Experiment [5] concerns the target KDM5A PHD3 finger with 6-fluorotryptophan at Trp18 and Trp28 (Homo sapiens) (UniProt P29375).

B1: H3K4me3 histone peptide (ARTKme3QTARKS) (peptide)
peptide: ARTK(Me3)QTARKS
As to B1, the Kd in experiment [1] was 70 nM; in experiment [2], 49 nM; in experiment [3], 48 nM; in experiment [4] it was 54 nM; in experiment [5], 57 nM. Further, the dH in experiment [1] was -11.7 kcal/mol; in experiment [2], -10.9 kcal/mol; in experiment [3], -11.9 kcal/mol; in experiment [4], -11.6 kcal/mol; in experiment [5], -12.1 kcal/mol.
